Measured values reported in PMC7948409.

Legend:
[1] = target: F-actin (actin filaments) from rabbit leg and back muscle (UniProt P68135); test: single-molecule TIRF microscopy; in vitro motility assay under TIRF; HMM (342.8 nM incubation) on TMCS glass; Alexa-488 phalloidin F-actin propelled with 1 mM MgATP; 5 nM Alexa-647 gelsolin; pCa 8.2; 23 °C; conditions: other: single-molecule TIRF microscopy
[2] = target: F-actin (actin filaments) from rabbit leg and back muscle (rabbit) (UniProt P68135); test: single-molecule TIRF microscopy; HMM (34.2 nM incubation) adsorbed on TMCS glass; rhodamine phalloidin F-actin (5 nM) held stationary in rigor, no MgATP; 5 nM Alexa-647 gelsolin in solution; no added Ca2+ (pCa > 9); 23 °C; 9 min observation
[3] = target: F-actin (actin filaments) from rabbit leg and back muscle (rabbit) (UniProt P68135); test: single-molecule TIRF microscopy; in vitro motility assay under TIRF; HMM (342.8 nM incubation) on TMCS glass; Alexa-488 phalloidin F-actin propelled with 1 mM MgATP; 5 nM Alexa-647 gelsolin; pCa 8.2; 23 °C

| gelsolin attachments per filament during 9 min [2] | gelsolin molecules bound per filament [3] | percent of HMM-propelled actin filaments with bound labeled gelsolin [3] | Substance | percent of sliding filaments with bound gelsolin, corrected for the labeling efficiency [1] |
| --- | --- | --- | --- | --- |
| – | – | – | Alexa-647-labeled gelsolin (His-tagged recombinant full-length human cytoplasmic gelsolin) | approximately 55% of all sliding filaments have bound gelsolin |
| 1.7 per filament | 1 per filament | 36.5% | Alexa-647-labeled gelsolin (His-tagged recombinant full-length human cytoplasmic gelsolin) (natural protein) | – |
